The results in this text go back to patent US20170159065A1 (VIB VZW, published 2017).

B1: PPD2 (PEAPOD2) (other, Arabidopsis thaliana, UniProt Q8GY55 1-315, looked up)
chain: MDVGVTTAKSILEKPLKLLTEEDISQLTREDCRKFLKEKGMRRPSWNKSQAIQQVLSLKALYEPGDDSGAGILRKILVSQPPNPPRVTTTLIEPRNELEACGRIPLQEDDGACHRRDSPRSAEFSGSSGQFVADKDSHKTVSVSPRSPAETNAVVGQMTIFYSGKVNVYDGVPPEKARSIMHFAANPIDLPENGIFASSRMISKPMSKEKMVELPQYGLEKAPASRDSDVEGQANRKVSLQRYLEKRKDRRFSKTKKAPGVASSSLEMFLNRQPRMNAAYSQNLSGTGHCESPENQTKSPNISVDLNSDLNSEDN
notes: Used as tagged bait in TAP from Arabidopsis cell culture and as a GAL4 fusion in Y2H/Y3H; the tags and fusion partners are not described; also called PPD2-HBH
B2: PPD1 (other, Arabidopsis thaliana, UniProt Q7XA73 1-313, looked up)
chain: MDVGVSPAKSILAKPLKLLTEEDISQLTREDCRKFLKDKGMRRPSWNKSQAIQQVLSLKALYEPGDDSGAGIFRKILVSQPVNPPRVTTTLIEPSNELEACGRVSYPEDNGACHRMDSPRSAEFSGGSGHFVSEKDGHKTTISPRSPAETSELVGQMTIFYSGKVNVYDGIPPEKARSIMHFAANPIDLPENGIFASSRMISKLISKEKMMELPQKGLEKANSSRDSGMEGQANRKVSLQRYREKRKDRKFSKAKKCPGVASSSLEMFLNCQPRMKAAYSQNLGCTGSPLHSQSPESQTKSPNLSVDLNSEGI
notes: Y2H fusion; also called PEAPOD1

Data set [1] deals with the molecule itself. The data set can be described thus: yeast two-hybrid.
For data set [2], the target named is T1, JAZ3 (Arabidopsis, UniProt Q9LVI4 1-352).
T1 construct: Endogenous prey in TAP; Y2H fusion in the yeast assays
T1 sequence (looked up): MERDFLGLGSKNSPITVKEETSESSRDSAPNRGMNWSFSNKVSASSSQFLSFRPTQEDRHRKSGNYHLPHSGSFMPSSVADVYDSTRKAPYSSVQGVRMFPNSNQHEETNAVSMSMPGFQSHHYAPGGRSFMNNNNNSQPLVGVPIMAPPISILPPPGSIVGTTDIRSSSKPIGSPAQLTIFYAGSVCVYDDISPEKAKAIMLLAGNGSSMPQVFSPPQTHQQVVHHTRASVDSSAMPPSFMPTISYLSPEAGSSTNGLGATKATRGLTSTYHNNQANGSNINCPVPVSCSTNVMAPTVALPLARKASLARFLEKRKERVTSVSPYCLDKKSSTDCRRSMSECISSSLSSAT
Kind of data set: tandem affinity purification (TAP) from Arabidopsis cell culture, Orbitrap mass spectrometry. The text has this: (§1) PPD proteins belong to the class II of the TIFY protein family together with 12 JAZ proteins […]. In the TIFY proteins, diverse domains are associated with different protein-protein interaction abilities, previously being able to isolate, by using tandem affinity purification (TAP), protein complexes from Arabidopsis cell cultures over-expressing JAZ proteins and to identify their interacting proteins (Pauwels et al., 2010). In order to determine the protein complex associated to PPD2, an updated and more sensitive protocol was applied using Orbitrap mass spectrometry (Eloy et al., 2012). […] To test this hypothesis, all 12 JAZ proteins, PPD1, PPD2 and TIFY8 for interaction with the PPD proteins were tested using yeast two-hybrid (Y2H) assays. These confirmed direct interaction with JAZ3 and TIFY8 and provided evidence of homo- and heterodimerization between PPD1 and PPD2. Moreover, the TAP analysis identified the TPL-adaptor protein NINJA and two proteins of yet unknown function, encoded by At3g24150 and At4g32295 and named KIX8 and KIX9 (see Table 3, Thakur et al., 2013).

The target of data set [3] is T2, TIFY8 (Arabidopsis, UniProt Q84MB2 1-361).
T2 sequence (looked up): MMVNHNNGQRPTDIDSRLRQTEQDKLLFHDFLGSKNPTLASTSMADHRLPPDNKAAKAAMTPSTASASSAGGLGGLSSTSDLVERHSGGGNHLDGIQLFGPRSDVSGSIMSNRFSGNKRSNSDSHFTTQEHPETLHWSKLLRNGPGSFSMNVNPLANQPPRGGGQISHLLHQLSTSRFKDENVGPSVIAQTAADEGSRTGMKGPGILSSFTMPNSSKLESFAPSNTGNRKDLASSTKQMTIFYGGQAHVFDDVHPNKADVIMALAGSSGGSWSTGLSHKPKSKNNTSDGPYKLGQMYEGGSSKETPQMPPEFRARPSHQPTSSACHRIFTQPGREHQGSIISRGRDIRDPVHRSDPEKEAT
The data set is described as above.
Excerpt: as §1

The target in data set [4] is B1. The data set can be described thus: yeast two-hybrid.

For the molecule B1, the binding result in data set [1], in data set [2] and in data set [3] was “binds” throughout.

Regarding B2, the binding result in data set [4] and in data set [1] was “binds” throughout.
